Reference: article PMC4191604 (Journal of Medicinal Chemistry, 2014)
Numbering of substitutions follows the chain as printed. Where two headings read alike, the source gives them in different places.

Tests used:
Assay in all cases: SPR
[1] = biological target: T1, GBP1 mutant Q72A (human, UniProt P32455 1-592, Q72A)
T1 sequence (looked up): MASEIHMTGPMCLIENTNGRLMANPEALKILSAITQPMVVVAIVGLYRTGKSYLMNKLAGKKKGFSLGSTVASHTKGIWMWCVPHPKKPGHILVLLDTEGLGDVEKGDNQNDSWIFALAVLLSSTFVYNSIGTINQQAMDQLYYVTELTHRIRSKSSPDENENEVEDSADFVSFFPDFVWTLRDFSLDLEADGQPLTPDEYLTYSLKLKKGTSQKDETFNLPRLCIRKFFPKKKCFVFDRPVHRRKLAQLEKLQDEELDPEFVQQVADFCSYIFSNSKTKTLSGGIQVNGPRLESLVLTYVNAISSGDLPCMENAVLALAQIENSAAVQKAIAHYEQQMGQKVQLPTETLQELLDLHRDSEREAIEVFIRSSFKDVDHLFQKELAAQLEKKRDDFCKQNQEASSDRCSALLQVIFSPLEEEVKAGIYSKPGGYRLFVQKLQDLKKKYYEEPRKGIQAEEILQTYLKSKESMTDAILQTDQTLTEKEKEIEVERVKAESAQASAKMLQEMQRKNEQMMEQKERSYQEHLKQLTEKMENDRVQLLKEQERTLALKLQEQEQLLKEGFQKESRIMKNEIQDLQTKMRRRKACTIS

[2] = biological target: T2, GBP1 GTPase (human GBP1, recombinant wild type) (human, UniProt P32455 1-592)
T2 sequence (looked up): T1 sequence (looked up) with A72Q

[3] = biological target: T3, GBP1 mutant D103N (human, UniProt P32455 1-592, D103N)
T3 sequence (looked up): T1 sequence (looked up) with A72Q, D103N

[4] = biological target: T4, GBP1 mutant R227E/K228E (human, UniProt P32455 1-592, R227E | K228E)
T4 sequence (looked up): T1 sequence (looked up) with A72Q, R227E, K228E

[5] = biological target: T2, GBP1 GTPase (human GBP1, recombinant …); remark: listed apart in the source

B1: PIM1 (recombinant) (enzyme)
chain: not shown
A Kd [1] of 62 ± 2 nM, a Kd [2] of 67 ± 20 nM and a Kd [3] of 21 ± 1 nM were found for B1 in this work. The Kd [4] was greater than 10000 nM and the Kd [5] was 38 ± 14 nM.
